Data from patent US8338155B2, “Modified mevalonate kinase with reduced feedback inhibition” (DSM IP Assets B.V., priority 2004, dated 2012).

Experiments:
[1] = test system: Paracoccus zeaxanthinifaciens strain R114; assay: Coenzyme Q10 production in fed-batch cultivation of recombinant strains; assay type: cell-based; conditions: 70 h, strain R114 with plasmid pBBR-K-mev-op-(S. cerevisiae mvk-N66K/I152M)-PcrtE-ddsAwt vs pBBR-K-mev-op-(S. cerevisiae mvk)-PcrtE-ddsAwt
Excerpt: To test the in vivo effect of mutation N66K/I152M on the production of coenzyme Q10, the DNA encoding S. cerevisiae mevalonate kinase mutant N66K/1152M (SEQ ID NO:5) is introduced into Paracoccus zeaxanthinifaciens and compared to the CoQ10 production in P. zeaxanthinifaciens carrying the DNA encoding the wild-type S. cerevisiae mevalonate kinase (SEQ ID NO:2).
Plasmids according to pBBR-K-mev-op-R114-PcrtE-ddsAwt, are constructed wherein the mevalonate operon, including its promoter region, from P. zeaxanthinifaciens R114 (see above) is replaced by either the DNA encoding the wild-type S. cerevisiae mevalonate kinase (SEQ ID NO:2) resulting in pBBR-K-mev-op-(S. cerevisiae mvk)-PcrtE-ddsAwt or the DNA encoding S. cerevisiae mevalonate kinase mutant N66K/1152M (SEQ ID NO:5) resulting in pBBR-K-mev-op-(S. cerevisiae mvk-N66K/I152M)-PcrtE-ddsAwt. […]
Coenzyme Q10 production is tested in fed-batch cultivations of P. zeaxanthinifaciens strains R114/pBBR-K-mev-opR114-PcrtE-ddsAwt, R114/pBBR-K-mev-op-(S. cerevisiae mvk)-PcrtE-ddsAwt and R114/pBBR-K-mev-op-(S. cerevisiae mvk-N66K/1152M)-PcrtE-ddsAwt. […] The precultures are incubated at 28° C. with shaking at 250 rpm for 28 h, after which time the optical density at 660 nm (OD660) is between 14 and 22 absorbance units, depending on the strain used. […]

[2] = test system: Saccharomyces cerevisiae mevalonate kinase; assay: Inhibition of mevalonate kinase activity by the feedback inhibitor FPP: feedback resistance; assay type: biochemical; conditions: 1 μM FPP; % resistance=100·((d/c)−(b/a))/(1−(b/a)) relative to wild-type
Method: “Feedback resistance” as used herein may be any increase in resistance to “feedback inhibition” (as defined above). Feedback resistance can be analyzed in different ways known to those skilled in the art. An appropriate example of such an analysis is shortly described herein: mevalonate kinase activity is measured in an activity assay at non-saturating concentrations of for instance ATP (or of another phosphate donor) and mevalonate (or mevalonate analogue), i.e., at for instance ATP (or phosphate donor) and mevalonate (or mevalonate analogue) concentrations around which the reaction rate is sensitive to changes of these substrate concentrations, e.g., at concentrations around the respective Km values of the enzyme under investigation for these substrates. The activities of both wild-type mevalonate kinase and of a variant/mutant of this enzyme are measured under otherwise identical conditions both in the absence and presence of a relevant concentration of a feedback inhibitor, i.e., at a concentration of feedback inhibitor affording significant inhibition of the wild-type mevalonate kinase. If the extent of inhibition (e.g., % inhibition) by the feedback inhibitor is lower for the mutant than for the wild-type enzyme, then the mutant is feedback resistant in the context of the present patent application. Once a feedback resistant variant/mutant has been identified, the same procedure as described above may be applied to identify further improved mutants, i.e., mutants that are even more feedback resistant. Feedback resistance (%) is calculated as follows: if (a) and (b) are the measured mevalonate kinase activities of the wild-type enzyme in the absence and presence, respectively, of the feedback inhibitor (e.g., FPP), and if (c) and (d) are the measured mevalonate kinase activities of the mutant enzyme in the absence and presence, respectively, of the same feedback inhibitor, then % feedback resistance is: % resistance=100·((d/c)−(b/a))/(1−(b/a))
(§1) For preparing mevalonate as substrate, 130 mg of DL-mevalonate lactone (FLUKA Chemie AG, Buchs, Switzerland) were dissolved in 5.5 ml of 0.2 M KOH and incubated for 15 min at 50° C. The solution was then adjusted to pH 7.0 by addition of 0.1 M HCl at room temperature (RT). Except if stated otherwise, the assay mixture consisted of 100 mM K2BPO/KH2PO4 (pH 7.0), 1 mM ATP, 2 mM MgCl2, 1 mM mevalonate, 0.5 mM phosphoenolpyruvate (PEP), 0.32 mM NADH, 20 U/ml pyruvate kinase and 27 U/ml lactate dehydrogenase (Sigma-Aldrich, St. Louis, Mo., USA). Inhibition was tested by adding 1 μM FPP.
(§2) Purification of His6-tagged mevalonate kinase and of His6-tagged mevalonate kinase mutant enzymes was done with Ni-NTA chromatography using the QIAexpress system/reagents of Qiagen. Upon addition of purified (His6-tagged) mevalonate kinase, enzymatic reaction reflected by consumption of NADH was followed by photometric measurement at 340 nm. One unit (1 U) of mevalonate kinase activity catalyzes the phosphorylation of 1 μmol of mevalonate per min.
(§3) Preparation of Mevalonate and Activity Measurement was Exactly Performed as Described in Example 1. 1 μM FPP was used for inhibition assays performed with the Saccharomyces cerevisiae mevalonate kinase wild-type enzyme and its mutants.
Feedback resistance (%) was calculated according to the following formula: % resistance=100·((d/c)−(b/a))/(1−(b/a)) wherein (a) and (b) refer to the measured mevalonate kinase activities of the wild-type enzyme in the absence and presence, respectively, and (c) and (d) refer to the measured mevalonate kinase activities of the mutant enzyme in the absence and presence, respectively, of FPP. The results are shown in Tab. 1, wherein WT represents the non-mutated mevalonate kinase containing a His6-tag (SEQ ID NO:3).

[3] = test system: Saccharomyces cerevisiae mevalonate kinase; assay: Mevalonate kinase activity assay (NADH consumption, photometric at 340 nm): specific activity; assay type: biochemical; conditions: purified His6-tagged enzyme; WT = non-mutated His6-tagged mevalonate kinase
Excerpt: Methods for measuring specific activity are known to the person skilled in the art. The specific activity may for instance be determined via measuring the consumption of NADH. Suitable conditions for such measurement may be those as e.g. outlined in Example 1 except that, typically, saturating substrate concentrations are used or, in the case of enzyme inhibition at high substrate concentrations, at substrate concentrations that provide maximal activity under the particular experimental conditions.
as §1, §2, §3

B1: N66K, I152M: Saccharomyces cerevisiae mevalonate kinase mutant with substitutions N66K and I152M (encoding DNA SEQ ID NO:5) (protein, listed as Saccharomyces cerevisiae)
chain: MSLPFLTSAPGKVIIFGEHSAVYNKPAVAASVSALRTYLLISESSAPDTIELDFPDISFNHKWSIKDFNAITEDQVNSQKLAKAQQATDGLSQELVSLLDPLLAQLSESFHYHAAFCFLYMFVCLCPHAKNIKFSLKSTLPIGAGLGSSASMSVSLALAMAYLGGLIGSNDLEKLSENDKHIVNQWAFIGEKCIHGTPSGIDNAVATYGNALLFEKDSHNGTINTNNFKFLDDFPAIPMILTYTRIPRSTKDLVARVRVLVTEKFPEVMKPILDAMGECALQGLEIMTKLSKCKGTDDEAVETNNELYEQLLELIRINHGLLVSIGVSHPGLELIKNLSDDLRIGSTKLTGAGGGGCSLTLLRRDITQEQIDSFKKKLQDDFSYETFETDLGGTGCCLLSAKNLNKDLKIKSLVFQLFENKTTTKQQIDDLLLPGNTNLPWTS
- final concentration of coenzyme Q10 produced, higher than strain carrying wild-type S. cerevisiae mvk [1]: at least 5%
- Feedback resistance (%) [2]: 67%
- Specific activity (% of wild-type) [3]: 148 % of wild-type
